The results in this text go back to patent US20150368661A1 (UNIVERSITY OF LOUISVILLE RESEARCH FOUNDATION, published 2015).

In experiment [1] the target is T1, HIV-1 Env of strain Q769.h5 (clade A) on Env-pseudotyped virus (HIV-1 Q769.h5 (clade A)). The experiment can be described thus: cell-based or functional assay.
Experiment [2] has as its target T2, HIV-1 Env of strain Du156 (clade C) on Env-pseudotyped virus (HIV-1 Du156 (clade C)). The experiment can be described thus: cell-based or functional assay.
The target in experiment [3] is T3, HIV-1 Env of strain SS1196.1 (clade B) on Env-pseudotyped virus (HIV-1 SS1196.1 (clade B)). In words: cell-based or functional assay.
Experiment [4] concerns the target T4, HIV-1 Env of strain SF162 (clade B) on Env-pseudotyped virus (HIV-1 SF162 (clade B), UniProt P19550 32-847). The experiment can be described thus: cell-based or functional assay.
Experiment [5] addresses T5, recombinant gp120 from HIV-1 SF162 (clade B) (HIV-1 SF162 (clade B), UniProt P19550 32-502).
T5 construct: domain: gp120; also called gp120SF162
The experiment can be described thus: gp120-ELISA, plate coated with recombinant gp120, non-linear regression; VRC01p (plant-produced).

For experiment [6], the target named is T1, HIV-1 Env of strain Q769.h5 (clade A) …. In words: cell-based or functional assay. The source holds these as a separate data set.
Experiment [7] deals with T2, HIV-1 Env of strain Du156 (clade C) on …. In words: cell-based or functional assay. This is another data set of the same source.
Experiment [8] deals with T3, HIV-1 Env of strain SS1196.1 (clade B) …. The experiment can be described thus: cell-based or functional assay. The source holds these as a separate data set.
Experiment [9] addresses T4, HIV-1 Env of strain SF162 (clade B) on …. The experiment can be described thus: cell-based or functional assay. This is another data set of the same source.
Experiment [10] has as its target T6, recombinant gp120 from HIV-1 Q769.H5 (clade A) (HIV-1 Q769.H5 (clade A)).
T6 construct: domain: gp120
The experiment can be described thus: gp120-ELISA, plate coated with recombinant gp120, non-linear regression. (In general: An ELISA detects its analyte on a solid surface through an enzyme-linked reagent.)

In experiment [11] the target is T7, recombinant gp120 from HIV-1 DU156 (clade C) (HIV-1 DU156 (clade C)).
T7 construct: domain: gp120; also called gp120DU156
Described as above.

For experiment [12], the target named is T5, recombinant gp120 from HIV-1 SF162 …. In words: VRC01p (plant-produced).
Experiment [13] shares this target.
The target is the same in experiment [14]. In words: gp120-ELISA, plate coated with recombinant gp120, non-linear regression.

Read-outs that look alike come from different tables or passages of the source.

B1: VRC01p (Nicotiana benthamiana plant-expressed anti-HIV-1 bnMAb VRC01 IgG1 from the L-(KP6pp)-H construct) (antibody)
light: EIVLTQSPGTLSLSPGETAIISCRTSQYGSLAWYQQRPGQAPRLVIYSGSTRAAGIPDRFSGSRWGPDYNLTISNLESGDFGVYYCQQYEFFGQGTKVQVDIKRTVAAPSVFIFPPSDEQLKSGTASVVCLLNNFYPREAKVQWKVDNALQSGNSQESVTEQDSKDSTYSLSSTLTLSKADYEKHKVYACEVTHQGLRSPVTKSFNRGECGGK
heavy: not shown
notes: also called plant-produced VRC01; VRC01p IgG1
For orientation: EC50 means the concentration needed to bring the measured effect to its halfway point. A word on the Kd: it is a measure of binding affinity in units of concentration. On to B1, for which the “IC50 (µg/ml) for VRC01p alone, HIV-1 neutralization, TZM-bl cells (VRC01p:GRFT series)” value came to 0.37 µg/mL in experiment [1], 0.25 µg/mL in experiment [2], 2.61 µg/mL in experiment [3] and 0.98 µg/mL in experiment [4]. For the same molecule, the “IC50 (µg/ml) for VRC01p alone, HIV-1 neutralization, TZM-bl cells (VRC01p:MVC series)” value in experiment [1] came out at 0.54 µg/mL; in experiment [2], 0.26 µg/mL; in [3] it was 2.22 µg/mL; in [4] it was 0.5 µg/mL. Besides, the “IC50 (µg/ml) for VRC01p alone, HIV-1 neutralization, TZM-bl cells (VRC01p:TFV series)” value in [1] came out at 0.47 µg/mL; in [2], 0.23 µg/mL; in experiment [3], 2.14 µg/mL; in experiment [4] it was 0.65 µg/mL. In addition, the values for the EC50 in [5], in experiment [10] and in [11] were 4.11 µg/mL, 0.35 µg/mL and 67.9 µg/mL, respectively. The “VRC01p IC50 (µg/ml), HIV-1 neutralization” value was 0.17 µg/mL in [6], 0.14 µg/mL in experiment [7], 1.32 µg/mL in experiment [8] and 0.04 µg/mL in experiment [9]. Further, the dissociation constant (Kd) in experiment [12] turned out to be 3.97 nM.

B2: VRC01HEK (HEK293F cell-produced bnMAb VRC01) (antibody)
light: EIVLTQSPGTLSLSPGETAIISCRTSQYGSLAWYQQRPGQAPRLVIYSGSTRAAGIPDRFSGSRWGPDYNLTISNLESGDFGVYYCQQYEFFGQGTKVQVDIKRTVAAPSVFIFPPSDEQLKSGTASVVCLLNNFYPREAKVQWKVDNALQSGNSQESVTEQDSKDSTYSLSSTLTLSKADYEKHKVYACEVTHQGLRSPVTKSFNRGEC
heavy: not shown
notes: also called human cell-produced VRC01; human cell-derived bnMAb
As to B2, the Kd in experiment [13] came to 3.82 nM. Besides, the figures for the EC50 in [14], in experiment [10] and in [11] were 4.24 µg/mL, 0.28 µg/mL and 15.1 µg/mL, respectively.
